These results are taken from US9434785.

In test [1] the target is T1, recombinant human OX40L (extracellular domain with FLAG peptide motif and isoleucine zipper motif) (human, UniProt P23510 51-183, biotinylated in the HTRF assays (sites not given)).
T1 sequence (looked up): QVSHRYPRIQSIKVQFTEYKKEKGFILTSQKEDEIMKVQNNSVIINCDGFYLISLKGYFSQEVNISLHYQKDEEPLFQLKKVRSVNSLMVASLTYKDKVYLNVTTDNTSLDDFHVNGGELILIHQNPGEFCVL
Nature of the test: cell-based or functional assay.

Test [2] has as its target T1, recombinant human OX40L (extracellular …). Nature of the test: HTRF ligand/receptor neutralisation; competitor OX40RFc-AF647 on biotinylated hOX40L; mean of three experiments, SEM +/-0.17. The method, then: (§1) Profiling of Fully Human Recombinant Anti-OX40L Antibodies in HTRF Ligand/Receptor Neutralisation Assay In order to determine whether recombinantly expressed fully human purified IgG inhibit human OX40L binding to OX40RFc the following method was carried out. Fully human purified IgG or other inhibitor were tested in order to establish the clone potency as measured by IC$50$ values in the assay. Antibodies recombinantly expressed and purified were titrated by diluting in HTRF assay buffer and 5 μL of this titration transferred to a white 384 well low volume non-binding surface polystyrene plate (Greiner). Biotinylated OX40L was diluted in HTRF assay buffer to a working concentration of 2.4 nM and 5 μL added. OX40RFc directly labelled with AF647 was then diluted to working concentration of 10 nM and 5 μL added. […] Plates were covered, protected from light and incubated at room temperature for 3 hrs prior to reading time resolved fluorescence at 620 nm and 665 nm emission wavelengths using an EnVision plate reader (Perkin Elmer). Data were analysed by calculating delta F as described in Equation 4 and percentage of receptor for each sample according to Equation 5 or in some cases Equation 6. IC$50$ values were determined using GraphPad Prism software by curve fitting using a four-parameter logistic equation (Equation 7) (FIG. 1).
For orientation: In TR-FRET formats the signal depends on donor and acceptor labels being close together.

Test [3] shares this target. Put plainly: SPR (ProteOn XPR36), apparent affinity, antibody captured on anti-mouse IgG, hOX40L at 256 nM, 1:1 model, 25 C. The method, then: SPR analysis was carried out using the ProteOn™ XPR36 Array System (BioRad). Anti-mouse IgG (GE Healthcare BR-1008-38) was immobilised on a GLM biosensor surface using amine coupling, the surface was then blocked using 1 M ethanolamine. Test antibodies were captured on this surface and recombinant hOX40L (human and rhesus) were used at a single concentration of 256 nM, binding sensorgrams were double referenced using a buffer injection (i.e. 0 nM) to remove baseline drift and injection artefacts. Apparent affinities for the OX40L-antibody interaction were determined using the 1:1 model inherent to the ProteOn XPR36 analysis software. The assay was run using HBS-EP (Teknova) as running buffer and carried out at 25° C.

For test [4] the target is unchanged. Put plainly: HTRF ligand/receptor neutralisation; competitor OX40RFc-AF647 on biotinylated hOX40L; mean of three experiments, SEM +/-0.04. The method, then:
as §1

B1: 10A07 (human) (antibody, V domains shown)
VH: EVQLVESGGVLVQPGGSLRLSCAASGFTFSSYIMTWVRQAPGKGLEWVSGISGSGGGTYYADSMKGRFTISRDNSKNTLYLQMNSLRVEDTAVYYCAKDRLGPITLVRGGYYYGMDVWGQGTTVTVSS
VL: DIQMTQSPSSLSASVGDRVTITCRASQSISDYLNWYQQKPGKAPKFLIYAASSLQSGVPSRFSGSGSGTDFTLTVSSLQPEDFATYYCQQSYSTPRTFGQGTRVEIK
notes: also called 10A7; mAb 10A7
In general, IC50 refers to the concentration that gives 50% inhibition. As for B1, the “Primary T-cell Assay IC50 nM (recombinant OX40L induced IL2 release from primary isolated T-cells)” value in test [1] was 0.83 nM. Besides, the IC50 in test [2] stood at 1.2 nM.

B2: 19H01 (hybridoma) (antibody, V domains shown)
VH: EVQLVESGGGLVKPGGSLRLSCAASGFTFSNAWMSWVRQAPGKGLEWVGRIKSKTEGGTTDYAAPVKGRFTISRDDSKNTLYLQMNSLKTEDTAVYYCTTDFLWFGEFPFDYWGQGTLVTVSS
VL: DIQMTQSPSSLSASVGDRVTITCRASQGISNYLAWYQQKPGKIPKLLIYAASTLQSGVPSRFSGSGSGTDFTLTISSLQPEDVATYYCQKYNSAPRTFGQGTKVEIK
notes: Murine/human chimeric antibody purified from hybridoma supernatant (human variable domains, mouse constant regions)
Take B2: in test [3], the Kd came to 2.2 nM.

B3: 9H04 (hybridoma) (antibody, V domains shown)
VH: QVQLVESGGGLVKPGGSLRLSCAASRFTLSDYYMTWIRQAPGKGLEWVSYISSSGNTIYYADSVKGRFTISRDNAKNSLYLQMNSLRAEDTAVYYCARDLSGSYWDYYYGMDVWGQGTTVTVSS
VL: AIQLTQSPSSLSTSVGDRVTIACRASQGINNALAWYQQKPGKAPKLLIYDASSLESGVPSRFSGSGSGTDFTLTISSLQPEDFATYYCQQFNSYPRTFGQGTKVEIK
notes: Murine/human chimeric antibody purified from hybridoma supernatant (human variable domains, mouse constant regions); also called 09H04
As to B3, the Kd in test [3] worked out at 5.3 nM.

B4: 2D10 (human) (antibody, human IgG4 S228P, kappa, V domains shown)
VH: EVQLVESGGGLVQPGGSLRLSCAASGFTFSNYAMNWVRQAPGKGLEWVSTISGSGGATRYADSVKGRFTISRDNSRNTVYLQMNSLRVEDTAVFYCTKDRLIMATVRGPYYYGMDVWGQGTTVTVSS
VL: DIQMTQSPSSLSASVGDRVTITCRASQSISSYLNWYQQKPGKAPNLLIYAASSLQSGVPSRFSGSGSETDFTLTISSLQPEDFATYYCQQSHSVSFTFGPGTKVDIKR
notes: Recombinant fully human IgG4-PE (Ser228Pro, Leu235Glu) with a human kappa light chain; also called 02D10; 2D10 IgG4PE
Regarding B4, in test [1], the “Primary T-cell Assay IC50 nM (recombinant OX40L induced IL2 release from primary isolated T-cells)” value stood at 0.81 nM. For the same molecule, the IC50 in test [4] turned out to be 0.75 nM.
